Measured values: the supplement of paper PMC12042874
± gives the uncertainty stated by the source.

Experiment: amyloid nucleation score (Sup35N fusion, yeast selection) (log enrichment); library NNK2; higher = more nucleation; inactive = no reads after selection
How it was run: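 Plasmid inserts were Illumina-sequenced at input and output from psi-negative yeast expressing Sup35N fused to peptides of 20 random codons. The yeast were induced with 100 μM copper sulfate for 24 hours and grown 7 days at 30°C on medium lacking adenine and uracil, and sequences with under 100 input reads were excluded. Nucleation score is the DiMSum log enrichment of output over input reads, centred on the mode score of non-aggregating sequences.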

In order of rising amyloid nucleation score:
1. GTGINLSFLYFAAGVLCSSS  -1.52 ± 1.1
2. CNSSSGHDKIVIGSLFRVFA  -1.42 ± 0.62
3. IRTLSFMIANSAL  -1.16 ± 1.1
4. RYKWFNKWYTCWYSRFKFYV  -1.13 ± 0.26
5. GFLELCMFKVFFQRCARTIS  -1.04 ± 1.1
6. SMTVKDSGFMSIFGFSTVRL  -0.854 ± 0.48
7. GTGMTYAIWLSGIGRMRFYY  -0.816 ± 0.33
8. FCDVQDFAVLSGVELLNLSY  -0.751 ± 0.39
9. TSSLDEEALS  -0.648 ± 0.55
10. GFSWDNESFLCELKMGCLTG  -0.646 ± 0.31
11. LLHLQYHLFMLCTVVNPHLL  -0.628 ± 0.54
12. WSMVQLPFSFIYPRGYLNMG  -0.615 ± 0.64
13. FFYWLAMIW  -0.582 ± 0.63
14. DYFSNLIVDLTFLSGSFVFV  -0.578 ± 1.1
15. TLVLTEFDKGIDIVL  -0.565 ± 0.26
16. DDYTDTCRCDMFRFSEFLTN  -0.534 ± 0.74
17. SSSLLRSHRVGYVNLVVRED  -0.524 ± 0.55
18. FSCEACIFLLYSYMFMNL  -0.522 ± 0.55
19. FYASLHNSFFSVLWTDMTFS  -0.487 ± 1.1
20. GFSTRYVFTSLYLKYFNRVY  -0.476 ± 0.64
21. VSYKWNGEWVRAPFDLQGCI  -0.464 ± 1.1
22. PMVFNHG  -0.398 ± 1
23. TLHVVQFWKSCI  -0.343 ± 0.45
24. YVEVLSKVAWASDCSRIEYA  -0.342 ± 1.1
25. RGAAGILFTSLIFMSVYALI  -0.104 ± 0.49
26. VYGLVL  0.011 ± 0.45
27. ILPISVLVDHINWSDPYFIM  0.035 ± 1
28. VNGVSMMHKIVLVNR  0.058 ± 1
29. YEPCLRSQNVSS  0.112 ± 0.79
30. ISPEYVSTALLTECTWRVLR  0.215 ± 0.46
31. FSLPFC  0.246 ± 0.49
32. CGLLGVPFTKLTMLISRRMT  0.286 ± 0.61
33. FSGKMN  0.301 ± 0.57
34. VSRFDA  0.306 ± 0.31
35. TFVKGKMFNLTRVWVLPYWT  0.318 ± 0.46
36. SYMFDSEVQVRTDFLLFCYI  0.346 ± 0.17
37. YNCLACARVKWKSVCGRMSC  0.388 ± 0.32
38. SNWFLWHTSTRFMIKENIMY  0.516 ± 0.74
39. FPLIDTYLEFMEPNGYWNSS  0.516 ± 0.81
40. VMWLSVRL  0.535 ± 0.44
41. TSNCS  0.579 ± 0.3
42. SIKCEFELIDLTSQAPCEGQ  0.611 ± 0.5
43. GVLYWALLDGGVQRGQDMKL  0.641 ± 0.62
44. IHDALTRCEWGSVSPRSSGC  0.682 ± 0.28
45. QGKNAFAGLGYMSHKRRMWG  0.686 ± 0.39
46. NIYADNARVWLPRGDRGLEW  0.799 ± 0.74
47. AIQLCLWSKRSQGRWFTLPV  0.82 ± 0.47
48. HYQWQYACLWRCVTVRGSDQ  0.949 ± 0.17
49. GLLGKTASTYAVRVWGIGVG  1.03 ± 0.2
50. TCATTDGVR  1.04 ± 0.21
51. MKRIRLGNQVRCEAANCRGR  1.1 ± 0.24
52. STWDESWLHVLRWREFATLQ  1.11 ± 0.22
53. ITNDLSLYYVARVGRTDYHF  1.13 ± 0.12
54. YDERTWGTECMCTSCSCADK  1.24 ± 0.28
55. SCVINM  1.55 ± 0.11
56. FVIVFVRRSNTFLAPQKVWG  1.6 ± 0.14
57. RVIWRQWYNTL  1.61 ± 0.19
58. HILICFWRVQVLKSACLYWT  1.74 ± 0.11
59. EVELALGGSELGGVVSWLM  1.77 ± 0.27
60. FNCHCSLSLVNHLASFTLSF  1.8 ± 0.16
61. TMLSLSDISFQLKKILL  2.56 ± 0.15
62. GLRWNKFYKCTEVCMCRGSS  2.58 ± 0.15
63. MNIYEVSKYENGY  3 ± 0.071
64. RINQLLTPLTWQERGP  3.38 ± 0.06
65. RNHRRSWMPSFRTKLNGGWF  3.58 ± 0.14
66. MWINHDPGWRCYYLYFPFL  3.59 ± 0.074
67. YYFKFNSS  3.65 ± 0.12
68. IVSCFTRVN  5.26 ± 0.059
69. GRSEVRFMTMLMLCKKCACL  5.547 ± 0.034
70. QFNFCKLAGQPLMFEFIDGV  5.58 ± 0.059
71. YQINCLGSYDNLQCMIGGHV  5.965 ± 0.037
72. TFEYCSLYVGCNQGNLVITT  6.575 ± 0.041
73. YFFITYVPSEAGYRREKWFG  7.34 ± 0.082
74. SVMSRNGNYVIVLGQCNCYM  8.509 ± 0.022

In the case of WDNHYRIKYCG, the amyloid nucleation score is reported as “inactive”.
With HLYLEYGNVTWGWVMVLIVG the amyloid nucleation score was “inactive”.
With VQRYRVFVAICFCGEMQRGF the amyloid nucleation score was “inactive”.
With SCTHLDW the amyloid nucleation score was “inactive”.
For IIFPGCKYLRYKDKEK, the amyloid nucleation score was “inactive”.
For LSAVLSAHIMVCLGYAYLG, the amyloid nucleation score was “inactive”.
With FHKKAMIRSFCPKEIDLGSM the amyloid nucleation score was “inactive”.
For YLIRVHICGCKYVERLFHSV, the amyloid nucleation score was “inactive”.
For MVYELRRFRCLFITVSGVDS, the amyloid nucleation score was “inactive”.
With CPGRRTISFYSFSFVFRSMN the amyloid nucleation score was “inactive”.
